Data taken from publication PMC2582589 (Structure (London, England : 1993), 2008).
Changes are numbered by the printed parent chain. Names and notes keep the numbering of the source. Where two headings read alike, the source gives them in different places. Square brackets hold non-standard residues; d marks the D form. Ends that are not written are not given here. Lys(Me3) = C[N+](C)(C)CCCC[C@H](N)C(=O)O

Assays:
[1] = biological target: T1, Eaf3 chromo barrel domain (1–113 aa) (Saccharomyces cerevisiae, UniProt Q12432); experiment: 15N-1H HSQC NMR titration of 15N-labeled Eaf3; type: binding; conditions: for affinity for Eaf3 (in words): HSQC titration, pH 6.7; for affinity relative to other methylated ligands (in words): from KD comparison
T1 sequence (Q12432 1-113): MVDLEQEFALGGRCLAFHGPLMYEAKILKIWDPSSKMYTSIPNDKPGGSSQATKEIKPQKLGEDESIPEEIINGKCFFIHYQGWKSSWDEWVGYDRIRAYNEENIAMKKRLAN

[2] = biological target: T2, Eaf3 chromo barrel domain (1–113 aa) (S. cerevisiae, UniProt Q12432 1-113); experiment: NMR titration
T2 sequence (looked up): T1 sequence (Q12432 1-113)

[3] = Protein stability, precipitation or aggregation of Eaf3 constructs; type: physicochemical; conditions: purified proteins expressed in Escherichia coli or NMR samples
[4] = Gel filtration chromatography of extended Eaf3; type: physicochemical; conditions: change in gel filtration chromatography retention time (data not shown)
[5] = system: Eaf3 chromo barrel domain and linked H3KC36me2; experiment: 15N-1H HSQC spectra of fused Eaf3-H3C36; type: binding, Saccharomyces cerevisiae; conditions: 15N-1H HSQC before and after dimethylation, 300K, pH 6.7
[6] = read-out: dissociation constant (KD), 15N-1H HSQC titration, 15N-labeled Eaf3 (1–113 aa), 300K, 20 mM NaPi pH 6.7, 50 mM NaCl, 1 mM EDTA, 2 mM DTT, range of estimates from amide peaks of two to four selected amino acids, curve fitting

In the case of `CN(C)C(N)=NCCC[C@H](N)C(=O)O` [asymmetrically dimethylated arginine, reference compound], the “affinity for Eaf3 (in words)” value ([1]; 300K) is reported as “does not have any significant affinity”.

Molecule KRHRK20me3VLRDN [H4K20me3] has a Kd [1, 6] of 3 to 4 mM.

In the case of ATGGVK36me3KPHRYR [H3K36me3], the “affinity for Eaf3 (in words)” value ([1]; 300K) is reported as “very low affinity (KD in the millimolar range)”, the “affinity for Eaf3 (in words)” value ([1]; 300K, listed as methylated H3K36 peptide) is reported as “millimolar-range affinity” and the “affinity relative to other methylated ligands (in words)” value [1] is reported as “comparable to that determined for the Eaf3-H3K4me3 complex”. The Kd [1, 6] was 1.8 to 3.4 mM.

In the case of `C[N+](C)(C)CCCC[C@H](N)C(=O)O` [trimethyllysine, trimethylated lysine, reference compound], the Kd [1] is reported as 8.6 to 19.2 mM and the “affinity relative to other methylated ligands (in words)” value [1] is reported as “significantly lower than that measured with trimethylated peptides under similar conditions”.

For “ATGGVKC36me3KPHRYR (ATGGVCKPHRYR; not fully specified (residue 6)) [H3KC36me3]”, the “affinity relative to other methylated ligands (in words)” value [1] was “only slightly lower than that of the H3K36me3 peptide”.

For ATGGV[Lys(Me3)]KPHRYR [H3K36me3 peptide (31–42 aa)], the Kd [2] was 1.8 to 3.4 mM.

Work on ATGGVCKPHRYR (not fully specified (residue 6)) [H3KC36me3 peptide (31–42 aa)] yielded a Kd [2] of 5 to 7 mM.

B1: Eaf3: N-terminal 1–113 aa of budding yeast Eaf3 (protein)
chain: T1 sequence (Q12432 1-113)
With B1 the “protein stability / precipitation / aggregation (in words)” value [3] was “has a tendency to aggregate”.

B2: Eaf3 (1–126 aa): Eaf3 extended by 13 residues (protein)
chain: MVDLEQEFALGGRCLAFHGPLMYEAKILKIWDPSSKMYTSIPNDKPGGSSQATKEIKPQKLGEDESIPEEIINGKCFFIHYQGWKSSWDEWVGYDRIRAYNEENIAMKKRLANEAKEAKKSLLEQQ
In the case of B2, the “oligomerization (in words)” value [4] is reported as “apparent homodimerization”.

KRHR[Lys(Me3)]VLRDN [H4K20me3 peptide (16–25 aa)] showed a Kd [2] of 3 to 4 mM.

For ART[Lys(Me3)]QTARKS [H3K4me3 peptide (1–10 aa)], the Kd [2] was 1 to 3 mM.

B3: Y23A: single-point mutation in Eaf3-H3C36 (protein, UniProt Q12432 1-401, looked up, variant Y23A)
Chromatin …: MVDLEQEFALGGRCLAFHGPLMAEAKILKIWDPSSKMYTSIPNDKPGGSSQATKEIKPQKLGEDESIPEEIINGKCFFIHYQGWKSSWDEWVGYDRIRAYNEENIAMKKRLANEAKEAKKSLLEQQKKKKLSTSLGGPSNGGKRKGDSRSNASISKSTSQSFLTSSVSGRKSGRSSANSLHPGSSLRSSSDQNGNDDRRRSSSLSPNMLHHIAGYPTPKISLQIPIKLKSVLVDDWEYVTKDKKICRLPADVTVEMVLNKYEHEVSQELESPGSQSQLSEYCAGLKLYFDKCLGNMLLYRLERLQYDELLKKSSKDQKPLVPIRIYGAIHLLRLISVLPELISSTTMDLQSCQLLIKQTEDFLVWLLMHVDEYFNDKDPNRSDDALYVNTSSQYEGVALGM
modifications: fused to histone H3 peptide
In the case of B3, the “protein stability / precipitation / aggregation (in words)” value [3] is reported as “unstable and highly prone to precipitation”.

B4: W84A: single-point mutation in Eaf3-H3C36 (protein, UniProt Q12432 1-401, looked up, variant W84A)
Chromatin …: B3 Chromatin … with A23Y, W84A
modifications: fused to histone H3 peptide
With B4 the “spectral change upon dimethylation of fused H3C36” value [5] was “Very little spectral change” and the “protein stability / precipitation / aggregation (in words)” value [3] was “prone to precipitation”.

B5: Y81A: single-point mutation in Eaf3-H3C36 (protein, UniProt Q12432 1-401, looked up, variant Y81A)
Chromatin …: B3 Chromatin … with A23Y, Y81A
modifications: fused to histone H3 peptide
In the case of B5, the “protein stability / precipitation / aggregation (in words)” value [3] is reported as “unstable and highly prone to precipitation”.

B6: W88A: single-point mutation in Eaf3-H3C36 (protein, UniProt Q12432 1-401, looked up, variant W88A)
Chromatin …: B3 Chromatin … with A23Y, W88A
modifications: fused to histone H3 peptide
With B6 the “spectral change upon dimethylation of fused H3C36” value [5] was “Very little spectral change”.
